Experimental data reported in publication PMC7614720.

Substrate: C[C@@H](O)[C@H]1C(=O)N2C(C(=O)O)=C([C@H]3CCCO3)S[C@H]12
Assay: purified protein
Format: biochemical, Stenotrophomonas maltophilia
Settings: two Zn2+ ions active site

B1: L1 (Stenotrophomonas maltophilia) (protein)
chain: VDASWLQPMAPLQIADHTWQIGTEDLTALLVQTPDGAVLLDGGMPQMASHLLDNMKARGVTPRDLRLILLSHAHADHAGPVAELKRRTGAKVAANAESAVLLARGGSDDLHFGDGITYPPANADRIVMDGEVITVGGIVFTAHFMAGHTPGSTAWTWTDTRNGKPVRIAYADSLSAPGYQLQGNPRYPHLIEDYRRSFATVRALPCDVLLTPHPGASNWDYAAGARAGAKALTCKAYADAAEQKFDGQLAKETAGAR
  Km: 36.3 µM
  kcat: 43.7 s⁻¹
  kcat/Km: 1.2e+06 M⁻¹ s⁻¹
